The supplement of paper PMC9170038

System: MS2 coat protein
Assay: apparent KD of MS2 coat protein; higher = weaker reporter binding
Settings: Eterna round: R107
Outline: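 With or without constant ligand, designed RNA switches in 100 mM Tris-HCl pH 7.5, 80 mM KCl and 4 mM MgCl2 were titrated with SNAP-549-labelled MS2 coat protein. Concentrations went up in twofold steps from 0.7 or 1.5 nM to 3 µM. The switches had been transcribed on-chip from Illumina sequencing clusters, and apparent KD is the per-design median of normalised cluster binding-curve fits.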

[1] = input ligand: theophylline 20 uM
[2] = input ligand: theophylline 2 mM
[3] = input ligand: tryptophan 2.4 mM

Sequence | apparent KD of MS2 coat protein (input ligand: arginine 13.2 mM) | apparent KD of MS2 coat protein [1] | apparent KD of MS2 coat protein [2] | apparent KD of MS2 coat protein (input ligand: none) | apparent KD of MS2 coat protein [3]
UGUACCUGUAUCUGGUCCAUAGUAUAACCUCGAGGACCGGUACGGCCGCCACUCGUCGGACCACAUGAGGAUCACCCAUGUACCG [theeternabot_exclusion_MS2_Trp_A_23] | 12.9 nM | 17.8 nM | 14.1 nM | – | –
GUAGCGACGGCGGCCGCCACUCACAGGUGAGGGUAGACCAACCUUCACAUGAGGAUCACCCAUGUGAGGACCGGGCUGUCGCUAC [#13 Exclusion Tryptophan B] | 36.3 nM | 117 nM | 122 nM | – | –
UAAUAGAUUACGGCCGCCACUGAAGUGGACUUUAUGAGCAGGAUUCACAUGAGGAUCACCCAUGUCAGGACCGGGUACGUCCAUA [theeternabot_exclusion_MS2_Trp_B_33] | 25.6 nM | 44 nM | 44.3 nM | – | –
CAUGCCAGGGCGGCCGCCACUGUGGCUACGGUACAUGAGGAUCACCCAUGUUUGUGGUUGAUCUACAGGACCGGGCCCUAGCACG [Anananenes] | 30.6 nM | 597 nM | 528 nM | – | –
GACCGAUUAUAGUGCGAUUGUCUUGUGGAAGGAGCGCAGAGGACUGCAGGUAGGUCGCCACAUGAGGAUCACCCAUGUCAGGAUU [Reinorlaan] | 39.8 nM | 45.1 nM | 64.8 nM | 46 nM | 40.5 nM
ACGAUAGGACCUGAGGAUCACCCAGGUGAUACCAGCCUGGAAACAGGCCCUUGGCAGCACCAAUACUCCAAUAACCUAUCGAAUA [TheoAX 11 #MicroSwitchBubble #AlternativeMS2] | 96.8 nM | 442 nM | 372 nM | 220 nM | 213 nM
AACAUACAAUUUUAGGUGGAUAUAAGGCGGCGAGGACCGGUACGGCCGCCACUCGCGUACAUGAGGAUCACCCAUGUCUGAAACU [Same State - Tryptophan A (Freestyle 5)] | 14.6 nM | 28.1 nM | 28.9 nM | 19.8 nM | 24.4 nM
AAUAACAUGAGGAUCACCCAUGUAAAAGAUACCAGAUGCAUGAUGAUCCCUUGGCAGCUUAAAACGCGAUUGAUUACAAUCGCGA [Mat - Same State Theophlline A - Mod of Eli - D12] | 41 nM | 77.9 nM | – | – | 27.5 nM
UUUACAUGAGGAUCACCCAUGUGCCAUGAUACCAGACAUGAAAAUGUCCCUUGGCAGCAUGAGUGAUGCAUCCGAAAGGAUGUUU [Ivanovice] | 97.2 nM | 197 nM | – | – | 52.4 nM
AGAGGUAUACAUGGAAACAUGUAUAUUUCACGAGGACCGGUACGGCCGCCACUCGGUACCGGAAACACAUGAGGAUCACCCAUGU [Ex_TrypA - H1] | 17 nM | 23.2 nM | 24.3 nM | – | –
AACAUGAGGAUCACCCAUGUCUGAACUGAAGGAGCGCUAAAUAAGGCAGGUAGGUCGCGGAAUUUUAUAUAUAUAUAUAUAUGGG [9.E] | 13.7 nM | 39.9 nM | 34.6 nM | 25.6 nM | 20.5 nM
AUCUUGUACCGUAAUACUUUACGUUGGGAUACCAGCAUGGACCCAUGCCCUUGGCAGCUUUACAUGAGGAUCACCCAUGUUGUAG [SSTheo A #28] | 26.3 nM | 42.2 nM | – | – | 39.9 nM
UAAAACAUGAGGAUCACCCAUGUAAUUGAUACCAGAGUGAUGAUCCUCCCUUGGCAGCAAAACGCUGAUUGAUUACAAUCAGCGA [Mat - Same State Theophlline A - Mod of Eli - D24] | 36.8 nM | 169 nM | – | – | 42.5 nM
AAACAUGAGGAUCACCCAUGUCCUCCUGUCCGAGGACCGGUACGGCCGCCACUCGGUUCUCGGGAGGAUGGUCAAAGACUAUCCA [Omei Trp A SS B v9] | 120 nM | 327 nM | 332 nM | – | –
GGUCGCCAACAUGGGUGGGCGACCCUGGAAGGAGCGAGCGAGAGCUCAGGUAGGUCGCCAGAACAUGAGGAUCACCCAUGUAAUA [(A)''-(M)'-(A)'(Arg1)-(Arg2)-(M1)-(M2)_Design13] | 70.8 nM | 162 nM | 70.3 nM | 44.5 nM | 59.6 nM
UAUAUAUAUCACGAACUGUGGUGUAUGUCUCGAGGACCGGUACGGCCGCCACUCGCGCGGCCUCACAUGAGGAUCACCCAUGUUG [XTryp A #6] | 27.9 nM | 73.7 nM | 78.5 nM | – | –
GACAUGAGGAUCACCCAUGUAUUGGGUGAUACCAGCCUGAAUCAUGGCCCUUGGCAGCACCGCGCUAACUUUAUGUUUGCGAACC [Mavegeceri] | 95 nM | 210 nM | – | – | 56.5 nM
AACGUAUACAGAAGGAGCGUGAAUUAUAUUACUCAUUCUUAUACAUGAGGAUCACCCAUGUCACAGGUAGGUCGCUGUAUUCGUA [JR_ExcArginiB_Sub019] | 81.9 nM | 91.9 nM | 111 nM | 106 nM | 81.6 nM
UCAGUGCAGGGAAGGAGCGGGUACAUGAGGAUCACCCAUGUGCAAGUGGUGAGCGUCCGUGCCCAGGUAGGUCGCCCAGCCUGGU [Atarteedon] | 69.2 nM | 235 nM | 198 nM | 121 nM | 108 nM

Sequence | apparent KD of MS2 coat protein (input ligand: arginine 13.2 mM) | apparent KD of MS2 coat protein [1] | apparent KD of MS2 coat protein [2] | apparent KD of MS2 coat protein (input ligand: none) | apparent KD of MS2 coat protein [3]
UAUACAUGAGGAUCACCCAUGUGCCAUGAUACCAGACAUGAAAAUGUCCCUUGGCAGCAUGGUGAUUGUAUAGCGGGAAACCCGA [Utechov] | 81.3 nM | 261 nM | – | – | 138 nM
GGAUAGGACAGAAGGAGCGACAUGAGGAUCACCCAUGUCUACCACGUCGAAAGACGCUCAUGUCAGGUAGGUCGCUGUCCUAUCG [ArgXB 9 #StaticStem #MS2LeftOffAptamer] | 101 nM | 191 nM | 183 nM | 153 nM | 113 nM
UGAAAGUAGGGAAGGAGCGCUACAACAUGAGGAUCACCCAUGUAAUGAGGAUCACCCAUGUGGCAGGUAGGUCGCCCAAAACAUG [#14 Same State - Arginine B] | 85 nM | 151 nM | 197 nM | 167 nM | 181 nM
GCUUGGGUGGCCCAGCCCUGGCAGGGCGAUACCAGCCCGGUAACGGGCCCUUGGCAGCGCACAUGAGGAUCACCCAUGUGGUGCG [#1 Exclusion - Theophylline A Attempt #28 (HarryS)] | 22.4 nM | 60.3 nM | 85 nM | 52.4 nM | 44.9 nM
CGGUUGCCACAUGAGGAUCACCCAUGUGAAGGAGCGGCGAAUAAGCCAGGUAGGUCGCGCAUGAAUAAAUCAUGUUGGUGCCGAA [XArg-A 17 V2] | 25.6 nM | 65.1 nM | 68.5 nM | 39.7 nM | 33.4 nM
AGUAUCAGUGGAAGGAGCGUCGCGAAUGUCACAUGAGGAUCACCCAUGUCGUCUUGAGCGCGACAGGUAGGUCGCCACGGUAGGC [SS-ArgB4] | 12.1 nM | 15.9 nM | 14.5 nM | 10.1 nM | 13.5 nM
CACAGUGCGAAAUUGAAUUCGCACGAUCCUCGAGGACCGGUACGGCCGCCACUCGCGCGGGUCGUACAUGAGGAUCACCCAUGUC [Zatiin] | 41.3 nM | 419 nM | 477 nM | – | –
ACGUCAUGGAGAACGUGACGACUUAUCGAUACCAGCGAUUGAGAGCGCCCUUGGCAGCGAACAUGAGGAUCACCCAUGUCAAGGG [Same State - Theophylline A] | 29.1 nM | 36.5 nM | – | – | 29.4 nM
CUGGACAUGAGGAUCACCCAUGUAAAUCCUCGAGGACCGGUACGGCCGCCACUCGAACGAGUGGCGCGCGCGCGCGCGCGCGCGC [aIa] | 23.5 nM | 142 nM | 89.5 nM | 54.3 nM | 62.9 nM
GGAUAGGACAGAAGGAGCGACGUGAGGCGAAAGCCAAUCCUUCAACAUGAGGAUCACCCAUGUCAGGUAGGUCGCUGUCCUAUCG [ArgBX 5] | 19.5 nM | 26.4 nM | 22.3 nM | 20.9 nM | 22.5 nM
AAAGACAUGAGGAUCACCCAUGUGGGUGGGCGAGGACCGGUACGGCCGCCACUCGUGGGCGGGAAGGGAUAUUUAAUAAGGAAGA [same state--tryptophan A 1st shot] | 50 nM | 155 nM | 272 nM | 102 nM | 131 nM
GCACCAGGUACGGAUACCAGACGUUGCCAAUUGGGUGCACAUGAGGAUCACCCAUGUUCUGUCCCUUGGCAGCCGUACCUGGUGC [EThB NP+V+V2 #5] | 10.2 nM | 13.5 nM | 73.2 nM | 10.1 nM | 9.12 nM
UUUGAUAGAACAGAUACCAGCGUGUUAUAAAACAUGAGGAUCACCCAUGUAGUGAUCAAGCGCCCUUGGCAGCUGGUUUGUUAGG [7.I] | 76.4 nM | 122 nM | – | – | 161 nM
GGAUAGGACAGAAGGAGCGACAUGAGGAUCACCCAUGUCUACUAGGACGAAAGUCCGUCAUGUCAGGUAGGUCGCUGUCCUAUCG [#29 Exclusion - Arginine B] | 68.8 nM | 103 nM | 114 nM | 88.7 nM | 81.2 nM
GGGCCCGGGCGCGAGCCCGGGCCCAUUGAUACCAGUGAAGAAGAGCGCCCUUGGCAGCGAAUCCUAACAUGAGGAUCACCCAUGU [5.P] | 63.2 nM | 74.3 nM | 77.3 nM | 43.6 nM | 38.8 nM
UGUGUGUGACCAGGAAAUGGUCACACACAGCGAGGACCGGUACGGCCGCCACUCGGCCGUACAUGAGGAUCACCCAUGUCGGGUA [#1 Same State - Tryptophan A Attempt #9 (HarryS)] | 99.6 nM | 961 nM | 1290 nM | – | –
AGCAACAAGUCGGCCGCCACUCUUUUUACAUGAGGAUCACCCAUGUUUAUAUCAUGGUCUUAAUAGAGGACCGGGACAGUUGCAU [JR_ExcTryptoB_Sub006] | 28.6 nM | 53.7 nM | 46.9 nM | – | –
CCUCAUGAACAUGAGGAUCACCCAUGUACACGAGGACCGGUACGGCCGCCACUCGAAUAAGCUAAAUAUAAAUAAUAAUAAUAGC [5' end split MS2] | 18.4 nM | 18.3 nM | 16.8 nM | – | –
UAUAUAGAUGGAAGUUCUAUAGAUGCAGAAGGAGCGUAGGAAACUACAGGUAGGUCGCUGAGGUACAUGAGGAUCACCCAUGUAG [SSArg A #20 Slice of Pi] | 14.3 nM | 40.5 nM | 26.4 nM | 26.4 nM | 22.5 nM
